Key:
B16-F1 melanomas = test: B16-F1 melanoma model, adoptive T cell therapy with anti-platelet agents; type: in vivo, C57BL/6 mice; settings: no adoptive T cells; Cy on day 7
Text: To establish the clinical relevance of the suppressive effect of platelets on anti-tumor immunity, the impact of platelets on immunotherapy was addressed pharmacologically. B16-F1 melanomas were established in C57BL/6 mice after subcutaneous injection on day 0, followed by lymphodepletion with Cy on day 7, and infusion of ex vivo primed Pmel cells on day 8, along with anti-platelet (AP) agents: aspirin and clopidogrel. Aspirin and clopidogrel inhibit platelet activation by blocking cycloxyenase and ADP receptors, respectively.
B16-F1 tumor model and adoptive T cell therapy (ACT). […] (B16 EV, and B16 GARP-Fc; n=5-7 each group) of 6-8-week old female C57BL/6J mice were inoculated s.q. in the right flank using 2.5×10^5 cells and, when specified, treated with one intra-peritoneal injection of CY (4 mg/mouse) a day prior to adoptive T cell therapy. […] Primary tumor growth was monitored 3 times per week with vernier calipers. Peripheral adoptively transferred Pmel cells were monitored at 2, 3, 4, and 5 weeks after ACT. Ex-vivo Pmel IFN-γ production was assess stimulating Pmel cells for 3 h in presence of hgp100 and brefeldin A (BFA) at 37° C. and analyzed by flow cytometry.

NMuMG cells = NMuMG cells stimulated with soluble GARP-Fc (morphology, vimentin Western blot); type: cell-based, murine
Method: Protein extraction, immunoprecipitation, and Western blot analysis. Cells were harvested by trypsin-EDTA when necessary, washed in PBS, and lysed on ice in radio-immunoprecipitation assay (RIPA) lysis buffer in the presence of a protease inhibitor cocktail (Sigma-Aldrich). Nuclear-free protein lysate was quantified by Bradford assay (Bio-Rad), and an equal amount of lysate was analysed by SDS-PAGE and Western blot under reducing conditions using anti-mouse GARP (AF6229; R&D system), anti-mouse Vimentin (D21H3; Cell signaling), anti-mouse E-Cadherin (24E10; Cell Signaling) and anti-mouse p-Smad-2/3 (EP823Y; Abcam).
Cell proliferation and in vitro wound healing assay. NMuMG cells (4×10^5) were starved overnight in serum free DMEM (Corning cellgro). Starved cells were cultured at the indicated times with GARP-Fc in 2% FBS DMEM. […] Proliferation was determined with 3-[4,5 dimethylthiazol-2-yl]-2,5-diphenyltetrazolium bromide (MTT), which was added to the cells at the indicated times and incubated for an additional 3 h at 37° C. […] Absorbance at 570 nm was then measured using a plate reader. The cell migration was measured by the wound-healing assay: at 100% confluence, two parallel wounds were made using a 1 ml pipette tip. Migration was assessed after 24, 48 and 72 hours and quantification of wound closure was measured using the ImageJ software (NIH).

active TGF-β1 = test: Active TGF-β ELISA of purified recombinant GARP-Fc; type: binding; settings: GARP-Fc purified from CHO conditioned medium
Method: Purification of GARP-Fc. For purification of GARP-Fc protein GARP-Fc, MigR1 vector was transfected into Chinese hamster ovary (CHO) cells using Lipofectamine 2000 (Invitrogen) according to the manufacturer's instructions. Stably transfected clones were selected by blasticidin (5 μg/ml) and protein expression was quantified by SDS-PAGE and Western blot under reducing conditions using anti-mouse GARP and anti-mouse Fc antibody. Recombinant GARP-Fc was purified from cell culture supernatants by protein A affinity chromatography (GE Health).
TGF-β1, GARP, and GARP-TGF-β1 analysis. Active TGF-β1, total TGF-β1, and soluble GARP were measured in human and mouse serum using TGF-β1 and GARP ELISA kits (BioLegend, San Diego, Calif.) according to the manufacturer's protocols. To measure GARP-TGF-β1 complex by ELISA, 96-well plates were coated with TGF-β1 capture antibody according to the manufacturer's instructions (BioLegend, San Diego, Calif.). Samples were incubated for 2 h at room temperature followed by the incubation with the anti-hGARP detection antibody developed in our lab for another 2 h.

[1] = molecular target: T1, binding of exogenous human LTGFβ-1 (huLTGFβ-1) to surface GARP (Homo sapiens, UniProt Q14392); test: Blocking of exogenous huLTGF-β binding to surface GARP on Pre-B-hGARP cells; type: cell-based; settings: staining for cell surface huLTGF-β
T1 construct: expressed in transfected cells; host or cells: murine Pre-B leukemia line 70Z/3 stably transduced with human GARP (MigR1 retroviral vector)
T1 sequence (Q14392 20-662): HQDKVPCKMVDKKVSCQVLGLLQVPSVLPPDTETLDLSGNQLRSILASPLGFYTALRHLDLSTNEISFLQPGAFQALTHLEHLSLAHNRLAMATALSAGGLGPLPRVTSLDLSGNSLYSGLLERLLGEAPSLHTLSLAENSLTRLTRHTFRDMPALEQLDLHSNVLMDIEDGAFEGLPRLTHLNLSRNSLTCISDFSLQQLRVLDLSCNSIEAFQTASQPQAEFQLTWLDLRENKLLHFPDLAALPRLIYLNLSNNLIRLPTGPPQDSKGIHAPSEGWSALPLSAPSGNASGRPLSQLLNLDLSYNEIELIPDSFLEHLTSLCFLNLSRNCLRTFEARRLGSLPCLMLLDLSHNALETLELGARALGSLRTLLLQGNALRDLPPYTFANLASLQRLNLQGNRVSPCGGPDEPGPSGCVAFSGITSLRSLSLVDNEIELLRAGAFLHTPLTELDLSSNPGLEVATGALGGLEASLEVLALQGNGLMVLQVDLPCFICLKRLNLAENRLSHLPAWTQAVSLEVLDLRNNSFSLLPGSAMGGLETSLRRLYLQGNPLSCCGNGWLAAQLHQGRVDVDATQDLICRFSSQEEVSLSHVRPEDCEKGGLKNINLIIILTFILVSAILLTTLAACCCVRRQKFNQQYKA
Method: FIGS. 7A-7E. GARP-specific antibodies block binding of exogenous LTGF-β to GARP and have therapeutic values against a preclinical model of breast cancer. (7A) Surface staining of Pre-B cells stably expressing human GARP (Pre-B-hGARP) by various GARP antibodies. Grey histogram represents staining with isotype control antibody. (7B) Pre-B-hGARP cells were incubated without or with human LTGF-β (huLTGF-β), in the presence of various GARP antibodies or Isotype control antibody, followed by staining for cell surface huLTGF-β. (7C) BALB/c mice were injected with 4T1-huGARP mammary tumors orthotopically, followed by indicated treatment regimen. Data shown are the comparisons of primary tumor weight isolated at 35 days (left panel, combined treatment group) or 30 days (right panel, antibody treatment alone) after inoculation. (7D) Impact of anti-GARP antibody treatment alone (left panel) or in combination with CY on the number of metastatic tumor nodules in the lungs. (7E) Percentage of splenic Tregs and MDSCs in the spleen of mice treated with isotype control antibody or anti-GARP antibody (4D3). Two sample t-tests were used to compare group differences in all panels. *P<0.05. ***P<0.001.

[2] = test system: human GARP-expressing 4T1 tumor cells; test: 4T1-huGARP orthotopic mammary tumor model, GARP antibody therapy; type: in vivo, BALB/c mice; settings: for primary tumor growth: antibody 0.1 mg/mouse i.p. three times per week, with or without a single dose of CY, vs isotype control
Method: 4T1 Tumor model and GARP antibody therapy. Female BALB/c mice, 6-8-week old were inoculated in the fourth mammary fat pad subcutaneously (s.q.) with 5×10^5 cells (4T1 EV, 4T1 GARP, or 4T1 GARP-Fc). Tumor growth was monitored three times per week with a digital vernier caliper and tumor volume was calculated using the following formula: tumor volume (mm^3)=[(width)^2×length][…]. In GARP antibody therapy experiments, beginning at 3 days post-tumor inoculation, anti-GARP antibody or polyclonal isotype-controlled antibody (0.1 mg/mouse in 0.1 mL PBS; three times per week) were administered intraperitoneally (i.p.) into mice. […] At end-point, mice were sacrificed and the primary tumor, draining LNs, spleen, lungs and liver were isolated. Tumor infiltrated lymphocytes were isolated by Collagenase D (Sigma) digestion followed by Histopaque-1083 (Sigma) mediated density separation.

mouse GARP = molecular target: T2, mouse GARP (Mus musculus, UniProt G3XA59); test: Cross-reactivity of anti-GARP mAb clones against mouse GARP; type: binding
T2 sequence (G3XA59 18-663): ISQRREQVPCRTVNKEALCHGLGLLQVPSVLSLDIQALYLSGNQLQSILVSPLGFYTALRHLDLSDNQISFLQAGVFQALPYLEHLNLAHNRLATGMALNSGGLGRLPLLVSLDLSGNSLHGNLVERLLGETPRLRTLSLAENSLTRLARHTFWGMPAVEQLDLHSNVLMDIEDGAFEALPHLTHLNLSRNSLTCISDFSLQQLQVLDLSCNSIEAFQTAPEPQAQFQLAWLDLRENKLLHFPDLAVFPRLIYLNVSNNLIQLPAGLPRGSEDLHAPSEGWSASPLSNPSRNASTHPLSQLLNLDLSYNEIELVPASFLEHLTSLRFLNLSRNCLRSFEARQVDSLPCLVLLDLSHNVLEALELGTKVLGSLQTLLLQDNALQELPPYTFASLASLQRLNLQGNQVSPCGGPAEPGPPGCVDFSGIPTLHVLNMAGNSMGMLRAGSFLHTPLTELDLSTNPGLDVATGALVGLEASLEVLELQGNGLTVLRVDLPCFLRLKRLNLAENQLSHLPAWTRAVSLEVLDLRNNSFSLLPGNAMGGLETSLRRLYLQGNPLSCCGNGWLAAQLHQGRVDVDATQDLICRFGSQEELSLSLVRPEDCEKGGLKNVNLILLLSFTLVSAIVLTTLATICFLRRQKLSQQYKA

[3] = spleen, vs isotype control antibody

For `O=P1(N(CCCl)CCCl)NCCCO1` (stereo not shown) [Cy, cyclophosphamide], the “tumor control without T cell transfer” value (B16-F1 melanomas) was “failed to control tumors”.

B1: GARP-Fc: fusion protein consisting of the N-terminal extracellular domain of GARP linked to an Fc domain of IgG (protein)
chain: ISQRREQVPCRTVNKEALCHGLGLLQVPSVLSLDIQALYLSGNQLQSILVSPLGFYTALRHLDLSDNQISFLQAGVFQALPYLEHLNLAHNRLATGMALNSGGLGRLPLLVSLDLSGNSLHGNLVERLLGETPRLRTLSLAENSLTRLARHTFWGMPAVEQLDLHSNVLMDIEDGAFEALPHLTHLNLSRNSLTCISDFSLQQLQVLDLSCNSIEAFQTAPEPQAQFQLAWLDLRENKLLHFPDLAVFPRLIYLNVSNNLIQLPAGLPRGSEDLHAPSEGWSASPLSNPSRNASTHPLSQLLNLDLSYNEIELVPASFLEHLTSLRFLNLSRNCLRSFEARQVDSLPCLVLLDLSHNVLEALELGTKVLGSLQTLLLQDNALQELPPYTFASLASLQRLNLQGNQVSPCGGPAEPGPPGCVDFSGIPTLHVLNMAGNSMGMLRAGSFLHTPLTELDLSTNPGLDVATGALVGLEASLEVLELQGNGLTVLRVDLPCFLRLKRLNLAENQLSHLPAWTRAVSLEVLDLRNNSFSLLPGNAMGGLETSLRRLYLQGNPLSCCGNGWLAAQLHQGRVDVDATQDLICRFGSQEELSLSLVRPEDCEKGGLKNVN
modifications: left off: a dimerising Fc or GST
notes: fusion protein consisting of the N-terminal extracellular domain of GARP linked to an Fc domain of IgG
For B1, the vimentin expression (NMuMG cells; Western blot, indicated times and increasing doses) was “time- and dose-dependent upregulation”, the cell morphology change (NMuMG cells; serum-free medium, within 24 hours) was “spindle-shaped morphology” and the “association between GARP-Fc and active TGF-β1” value (active TGF-β1) was “direct association”.

B2: 4D3: anti-GARP monoclonal antibody (IgG1); VH SEQ ID NO: 4, VL SEQ ID NO: 8 (antibody, listed as Homo sapiens, V domains shown)
VH: LDVQLQESGPGLVKPSQSLSLTCTVTGYSITSDYAWNWIRQFPGNKLEWMGYISYSGSTSYTPSLKSRISITRDTSKNHFFLQSNSVTTEDTATYYCAKSGGDYYGSSSYWYFDVWGAGTTVTVSS
VL: DIQMTQSPSSLSVSAGEKVTMSCKSSQSLLNSRSQKNYLAWYQQKPGQPPKLLIYRASTRGSGVPDRFTGSGSGTDFTLTISSVQAEDLAVYYCQNDHSYPFTFGSGTKLEIK
For B2, the “block of binding of exogenous human LTGFβ-1 to surface GARP” value [1] was “only clone able to block”, the primary tumor growth [2] was “modestly inhibited” and the “splenic Gr1+CD11b+ myeloid-derived suppressor cells (MDSCs)” value [2, 3] was “significant reduction”. The “splenic Tregs” value [2, 3] was “significant reduction” and the “cross-reactivity against mouse GARP” value (mouse GARP) was “low level of cross-reactivity”.

B3: 5C5: second anti-GARP mAb (IgG2a); VH SEQ ID NO: 12, VL SEQ ID NO: 16 (antibody, listed as Homo sapiens, V domains shown)
VH: EVKLVESGGGSVKPGGSLKLSCAASGFTFSNYVMSWVRQTPEKRLEWVATISSGGSYTYYPDSVKGRLTISRDNAKNTLYLQMSSLRSEDTAMYYCARGYDNGDYVMDYWGQGTSVTVSS
VL: DIVLTQSPASLAVSLGQRATISCRASESVDTYGNSFMHWYQQIPGQPPKVLIYRASNLESGIPARFSGSGSRTDFTLTINPVEAGDVATYYCQQTNEHPPTFGGGTKLEIK
With B3 the primary tumor growth [2] was “modestly inhibited”.
